Test results reported in US20060093617A1.
Read-outs that look alike come from different tables or passages of the source.

Columns and labels:
[1] = target: HLA-A0201 (human); experiment: competition with 125I-labelled probe peptide, purified HLA
[2] = target: HLA-A*0201 (human); experiment: competition with radiolabeled probe peptide for purified soluble HLA-A*0201
[3] = target: HLA-A2402 (human)
[4] = target: HLA-Cw0702 (human)
[5] = target: HLA-DRB1*0101 (human); experiment: competition vs 125I-labelled probe peptide, purified HLA-DR
[6] = target: HLA-A0201 (human); experiment: competition vs 125I probe peptide, purified HLA-A*0201
[7] = target: HLA-B0702 (human)
[8] = target: HLA-Cw0602 (human)
[9] = target: HLA-B0702 (human); experiment: competition vs 125I probe peptide, purified HLA
[10] = target: HLA-B*0702 (human); experiment: competition with 125I-labeled probe peptide, purified HLA
[11] = target: HLA-B0702 (human); experiment: competition with 125I-labelled probe peptide on purified soluble HLA; conditions: remark: other sources report otherwise
[12] = target: HLA-A*0201 (human); experiment: competition binding, purified soluble HLA, 125I-labelled probe peptide
[13] = target: HLA-DRB1*0301 (human); experiment: competition vs 125I-labelled probe peptide, purified HLA-DR
[14] = target: HLA-A0301 (human)
[15] = target: HLA-A*0301 (human); experiment: competition with 125I-labelled probe peptide on purified soluble HLA
[16] = remark: other sources report otherwise

DLMGYIPLV (modifications not checked)
Ki [1, 16]: 36 nM | IC50 [2, 16]: 83 nM

RMILMTHFF (modifications not checked)
Ki [3, 16]: 6 nM

YRRCRASGVL (modifications not checked)
Ki [4]: 83 nM

IIMYAPTLW (modifications not checked)
Ki [3]: 0.8 nM

GLTHIDAHF (modifications not checked)
Ki [3]: 3 nM

LAGYGAGVAGALVAF (modifications not checked) [… (SEQ ID NO 2166)]
IC50 [5, 16]: 137 nM

SKGWRLLAPITAYAQ (modifications not checked) [… (SEQ ID NO 2213)]
IC50 [5]: 0.4 nM

TLWARMILM (modifications not checked)
Ki [6]: 8 nM

APTLWARMI (modifications not checked)
Ki [7, 16]: < 1000 nM

NLPGCSFSI (modifications not checked)
Ki [6, 16]: 70 nM | Ki [3, 16]: 8 nM | IC50 [2, 16]: 83 nM

DLCGSVFLV (modifications not checked)
Ki [1, 16]: 789 nM

VAYYRGLDV (modifications not checked)
Ki [8]: 231 nM

APTGSGKST (modifications not checked)
Ki [9]: 370 nM | IC50 [10]: 370 nM

WESVFTGLTHIDAHF (modifications not checked) [… (SEQ ID NO 2245)]
IC50 [5, 16]: 122 nM

GRKPARLIV (modifications not checked)
Ki [8]: 2040 nM

APTLWARMIL (modifications not checked)
Ki [9, 16]: 1 nM | Ki [11]: 1 nM

GVNYATGNLPGCSFS (modifications not checked) [… (SEQ ID NO 2155)]
IC50 [5]: 4560 nM

IMACMSADL (modifications not checked)
Ki [6, 16]: 66 nM | IC50 [12, 16]: 66 nM

APLGGAARA (modifications not checked)
Ki [9]: 115 nM | IC50 [10]: 115 nM

NAVAYYRGL (modifications not checked)
Ki [8, 16]: 10800 nM

GRRGIYRFV (modifications not checked)
Ki [8]: 576 nM

YLFNWAVRT (modifications not checked)
Ki [6]: 29 nM | IC50 [12]: 29 nM

RAAVCTRGVAKAVDF (modifications not checked) [… (SEQ ID NO 2199)]
IC50 [5]: 619 nM

ADLMGYIPLVGAPLG (modifications not checked) [… (SEQ ID NO 2105)]
IC50 [5, 16]: 8330 nM

LPRRGPRLGV (modifications not checked)
Ki [9, 16]: 3 nM | Ki [11]: 3 nM

TPAETSVRL (modifications not checked)
Ki [7]: < 1000 nM

GMFDSSVLC (modifications not checked)
Ki [6]: 71 nM | IC50 [2]: 114 nM

CLVDYPYRL (modifications not checked)
Ki [1]: 437 nM | IC50 [2]: 437 nM

PTHYVPESDAAARVT (modifications not checked) [… (SEQ ID NO 2193)]
IC50 [13]: 4950 nM

MALYDVVST (modifications not checked)
Ki [6]: 1140 nM

YAAQGYKVLV (modifications not checked)
Ki [8]: 9210 nM

DVVVVATDALMTGYT (modifications not checked) [… (SEQ ID NO 2125)]
IC50 [5, 16]: 456 nM

ASCLRKLGVPPLRVW (modifications not checked) [… (SEQ ID NO 2110)]
IC50 [5]: 4.9 nM

LPRRGPRLG (modifications not checked)
IC50 [10]: 124 nM

VTLTHPITK (modifications not checked)
Ki [14, 16]: < 1000 nM

APPPSWDQM (modifications not checked)
Ki [7, 16]: < 1000 nM

TYSTYGKFL (modifications not checked)
Ki [8, 16]: 4860 nM | Ki [4]: 239 nM

QIVGGVYLL (modifications not checked)
IC50 [2]: 228 nM

GARLVVLATATPPGS (modifications not checked) [… (SEQ ID NO 2137)]
IC50 [5, 16]: 173 nM

VILDSFDPL (modifications not checked)
Ki [3]: > 20000 nM

ASQLSAPSLKATCTT (modifications not checked) [… (SEQ ID NO 2111)]
IC50 [5]: 329 nM

ATLGFGAYM (modifications not checked)
Ki [9]: 13000 nM

YQATVCARA (modifications not checked)
Ki [6]: 20 nM | IC50 [12]: 20 nM

RVCEKMALY (modifications not checked)
Ki [14]: < 1000 nM | IC50 [15]: 53 nM

RKPARLIVF (modifications not checked)
Ki [8]: 8280 nM

GHRMAWDMMMNWSPT (modifications not checked) [… (SEQ ID NO 2142)]
IC50 [13]: 919 nM | IC50 [5]: 183 nM

KVLVLNPSV (modifications not checked)
Ki [6]: 50 nM | IC50 [2]: 50 nM

NIIMYAPTL (modifications not checked)
Ki [6]: 70 nM | IC50 [12]: 70 nM

FLLALLSCL (modifications not checked)
IC50 [2, 16]: 136 nM

GYKVLVLNPSVAATL (modifications not checked) [… (SEQ ID NO 2157)]
IC50 [5]: 8.4 nM

APLGGAARAL (modifications not checked)
Ki [9, 16]: 1 nM | Ki [11]: 1 nM | IC50 [10, 16]: 0.8 nM

ALAHGVRVL (modifications not checked)
Ki [1, 16]: 627 nM | Ki [9, 16]: 7950 nM

VVSTLPQAV (modifications not checked)
Ki [6]: 884 nM

TTIMAKNEVFCVQPE (modifications not checked) [… (SEQ ID NO 2226)]
IC50 [5, 16]: 3730 nM

YYRGLDVSVI (modifications not checked)
Ki [3]: 2 nM | Ki [4]: 87 nM

RLYIGGPLT (modifications not checked)
Ki [6]: 536 nM

SPGQRVEFL (modifications not checked)
Ki [7, 16]: < 1000 nM

GPRLGVRATRKTSER (modifications not checked) [… (SEQ ID NO 2149)]
IC50 [13]: 18900 nM

DQRPYCWHY (modifications not checked)
Ki [4]: 710 nM

AAYAAQGYK (modifications not checked)
Ki [14]: < 1000 nM

YIPLVGAPL (modifications not checked)
Ki [6, 16]: 77 nM | IC50 [2, 16]: 337 nM

YRRCRASGV (modifications not checked)
Ki [8]: 634 nM

GSSYGFQYSPGQRVE (modifications not checked) [… (SEQ ID NO 2153)]
IC50 [5, 16]: 11 nM

RVFTEAMTR (modifications not checked)
Ki [14]: < 1000 nM | IC50 [15]: 45 nM

PQTFQVAHLHAPTGS (modifications not checked) [… (SEQ ID NO 2192)]
IC50 [5]: 22 nM
